Experimental data as given in paper PMC4805485.

Experiments:
[1] = molecular target: K63-linked diubiquitin (UniProt P0CG47); assay: SEC
[2] = molecular target: diubiquitin G76C linked via K63, conjugated to BODIPY TMR C5-maleimide (UniProt P0CG47); assay: fluorescence polarisation

Substance | stoichiometry N (MyUb per diubiquitin) [1] | fold reduction in binding affinity compared to the MyUb domain alone [2] [fold]
MyUb (G1080-R1131) (from UniProt Q9UM54 1080-1131) (domain or fragment) | 1 | –
myosin VI 1050-1131 (from UniProt Q9UM54 1050-1131) (domain or fragment) | – | 4
